Changes are numbered by the printed parent chain.
T1: human CLL-1 on cells (endogenous on HL-60, EOL-1 and other AML cell lines and CD14+ monocytes); recombinant on … (human, UniProt Q5QGZ9 1-265)
T1 sequence: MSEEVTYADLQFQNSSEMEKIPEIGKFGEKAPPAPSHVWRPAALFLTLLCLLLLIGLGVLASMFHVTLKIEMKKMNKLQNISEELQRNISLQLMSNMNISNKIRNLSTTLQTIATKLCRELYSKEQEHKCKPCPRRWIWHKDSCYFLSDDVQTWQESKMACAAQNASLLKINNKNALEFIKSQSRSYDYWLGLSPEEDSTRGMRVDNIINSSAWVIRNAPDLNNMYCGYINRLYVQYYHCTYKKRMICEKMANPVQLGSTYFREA

T2: recombinant human CLL-1 extracellular domain (ECD, amino acids 65-265) fused to an N-terminal Flag (human, UniProt Q5QGZ9 65-265)
T2 construct: The construct and the K244Q SNP are stated for the immunogen; they are not written as a piece; also called huCLL-1-Flag; huCLL-1
T2 chain: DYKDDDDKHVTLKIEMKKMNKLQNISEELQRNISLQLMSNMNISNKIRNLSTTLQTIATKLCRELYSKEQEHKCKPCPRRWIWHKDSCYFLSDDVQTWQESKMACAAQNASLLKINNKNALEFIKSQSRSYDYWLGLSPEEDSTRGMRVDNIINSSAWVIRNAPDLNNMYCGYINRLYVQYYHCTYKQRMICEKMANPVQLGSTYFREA

T3: recombinant cynomolgus CLL-1 extracellular domain (ECD, amino acids 65-265) fused to an N-terminal Flag (cynomolgus monkey)
T3 construct: Construct stated for the immunogen; also called CynoCLL-1 Flag; cynoCLL-1
T3 chain: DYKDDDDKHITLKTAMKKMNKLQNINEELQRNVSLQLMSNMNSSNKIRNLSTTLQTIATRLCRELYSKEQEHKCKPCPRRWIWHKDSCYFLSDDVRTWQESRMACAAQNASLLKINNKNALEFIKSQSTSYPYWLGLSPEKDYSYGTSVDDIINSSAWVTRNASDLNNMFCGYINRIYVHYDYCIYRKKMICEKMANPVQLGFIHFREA

B1: h21C9 (h21C9.L2H3)×38E4v1 TDB (bispecific antibody, V domains shown)
VH 1: EVQLVQSGAEVKKPGASVKVSCKASGYTFTDYYLDWVRQAPGQGLEWIGRVNPYNGGTIYNQKFKGRVTLTRDTSTSTAYLELSSLRSEDTAVYYCARDHYRYDPLLDYWGQGTLVTVSS
VL 1: DIQMTQSPSSLSASVGDRVTITCKASQDVSTAVAWFQQKPGKAPKLLIYSPSYRYTGVPSRFSGSGSGTDFTLTISSLQPEDFATYYCQQLYSTPYTFGQGTKVEIK
VH 2: EVQLVQSGAEVKKPGASVKVSCKASGFTFTSYYIHWVRQAPGQGLEWIGWIYPENDNTKYNEKFKDRVTITADTSTSTAYLELSSLRSEDTAVYYCARDGYSRYYFDYWGQGTLVTVSS
VL 2: DIVMTQSPDSLAVSLGERATINCKSSQSLLNSRTRKNYLAWYQQKPGQSPKLLIYWTSTRKSGVPDRFSGSGSGTDFTLTISSLQAEDVAVYYCKQSFILRTFGQGTKVEIK
B2: 28H12×38E4v1 TDB (bispecific antibody, human IgG1, V domains shown)
VH 1: QVQLQQSGAELVKPGASVKLSCTASGFNIKDTYMHWVKQRPEQGLEWIGRIDPANGDTDYDPKFQGKATVTADTSSNTAYLQLSSLTSEDTAVYYCTISGPPYYVMDYWGQGTSVTVSS
VL 1: DIQMTQSPASLAVSLGQRATISCRASQSVSSSSYSYMHWYQQKPGQPPKLLIKYASNLESGVPARFSGRGSGTDFTLNIHPVEEEDTATYYCQHSWEIPYTFGGGTRLEIK
VH 2: B1 VH 2
VL 2: B1 VL 2
B3: 20B1×38E4v1 TDB (bispecific antibody, human IgG1, V domains shown)
VH 1: EVQLQQSGPELVKPGALVKISCKASGYTFTSYDINWLKQRPGQGLEWIGWIYPGDGTTEYNERFKGKATLTADKSSSTAYLQLSSLTSENSAVYFCARSYDYDYAMDYWGQGTSVTVSS
VL 1: DIVLTQSPAIMSASPGEKVTMTCSASSSISYMYWYQQKPGTSPKRWIYDTSKLASGVPARFSGSGSGTSYSLTISSMEAEDAATYYCHQRSSWTFGGGTKLEIK
VH 2: B1 VH 2
VL 2: B1 VL 2
B4: 6E7.L4H1eA54×38E4v1 TDB (bispecific antibody, V domains shown)
VH 1: EVQLVQSGAEVKKPGASVKVSCKASGYSFTDYYMHWVRQAPGQGLEWIGRINPYAGAAFYSQNFKDRVTLTVDTSTSTAYLELSSLRSEDTAVYYCAIERGADLEGYAMDYWGQGTLVTVSS
VL 1: DIQMTQSPSSLSASVGDRVTITCRASQSVSTSSYNYMHWYQQKPGKPPKLLIKYASNLESGVPSRFSGSGSGTDFTLTISSLQPEDFATYYCQHSWEIPLTFGQGTKVEIK
VH 2: B1 VH 2
VL 2: B1 VL 2
B5: humanized 6E7 variant CDRs graft+K49(LC)+(A67, L69, V71, K73 (HC)) (antibody, V domains shown)
VH: B4 VH 1 with A55N, V68A, T74K
VL: B4 VL 1
B6: humanized 21C9 variant CDRs graft+(F36 and S43(LC))+L69 (HC) (antibody, V domains shown)
VH: B1 VH 1
VL: B1 VL 1 with A43S
B7: 38E4v1 Fab (Fab, V domains shown)
VH: B1 VH 2
VL: B1 VL 2
notes: Fab; also called 38E4v1 (Fab Biacore measurements)
B8: 6E7.L4H1eE54 (antibody, V domains shown)
VH: B4 VH 1 with A55E
VL: B4 VL 1
notes: IgG
B9: 6E7.L4H1eS54 (antibody, V domains shown)
VH: B4 VH 1 with A55S
VL: B4 VL 1
notes: IgG
B10: 21C9.L2H3E54 (antibody, V domains shown)
VH: B1 VH 1 with N55E
VL: B1 VL 1
B11: 21C9.L2H3S54 (antibody, V domains shown)
VH: B1 VH 1 with N55S
VL: B1 VL 1
B12: 21C9.L2H3A54 (antibody, V domains shown)
VH: B1 VH 1 with N55A
VL: B1 VL 1
B13: 21C9.L2H3D54 (antibody, V domains shown)
VH: B1 VH 1 with N55D
VL: B1 VL 1

Each binder was assayed against T1, human CLL-1 on cells (endogenous on …) (assay: cell-based or functional assay).

| Binder | EC50 of killing of EOL-1 (other donors) [µg/mL] |
| --- | --- |
| B1 | 0.0163 |

Target: T1, human CLL-1 on cells (endogenous on …)
Test: cell-based or functional assay
Remark: another data set of the same source

| Binder | Cell killing EC50 (EOL-1 cells, human CD8+ T cells) [µg/mL] |
| --- | --- |
| B2 | > 1 |
| B3 | 0.531 |
| B4 | 0.034 |

Target: T1, human CLL-1 on cells (endogenous on …)
Test: cell-based or functional assay
Remark: another data set of the same source

| Binder | average killing EC50, EOL-1 [µg/mL] | average killing EC50, HL-60 [µg/mL] | average killing EC50, human autologous CD14+ [ng/ml] |
| --- | --- | --- | --- |
| B1 | 0.0511 | 1.76 | 14.8 |

Target: T2, recombinant human CLL-1 extracellular …
Test: SPR (Biacore T200), IgG captured by anti-human Fc, human CLL-1 as analyte
Protocol: The binding affinity of the antibodies in this section was determined by BIAcore™ T200 Format. Briefly, BIAcore™ research grade CM5 chips were activated with 1-ethyl-3-(3-dimethylaminopropyl) carbodiimide (EDC) and N-hydroxysuccinimide (NHS) reagents according to the supplier's instructions. Goat anti-human Fc IgGs were coupled to the chips to achieve approximately 10,000 response units (RU) in each flow cell. Unreacted coupling groups were blocked with 1M ethanolamine. For kinetics measurements, antibodies were captured to achieve approximately 300 RU. Three-fold serial dilutions of human CLL-1 was injected in HBS-P buffer (0.01M HEPES pH7.4, 0.15M NaCl, 0.005% surfactant P20) at 25° C. with a flow rate of 30 μl/min. Association rates (kon) and dissociation rates (koff) were calculated using a 1:1 Langmuir binding model (BIAcore™ T200 Evaluation Software version 2.0). The equilibrium dissociation constant (Kd) was calculated as the ratio koff/kon.

| Kd [nM] | Binder |
| --- | --- |
| 1.4 | B5 |
| 10.5 | B6 |

What follows are binders tested against T4, hCD3ε (human, UniProt P07766 23-126) (assay: SPR (Biacore), Fab).
T4 construct: Also used for the value printed only as 'hCD3 (0.05 nM'); also called human CD3ε polypeptide
T4 sequence (P07766 23-126): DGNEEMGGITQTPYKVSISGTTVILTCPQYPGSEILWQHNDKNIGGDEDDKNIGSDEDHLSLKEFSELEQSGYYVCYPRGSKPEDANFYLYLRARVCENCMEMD

| Kd [nM] | koff [s⁻¹] | kon [M⁻¹ s⁻¹] | Binder |
| --- | --- | --- | --- |
| 0.389 | 0.00317 | 8.15e+06 | B7 |

Target: T3, recombinant cynomolgus CLL-1 …
Test: SPR (Biacore T200), IgG captured by anti-human Fc, CLL-1 as analyte

| Kd [nM] | koff [s⁻¹] | kon [M⁻¹ s⁻¹] | Binder |
| --- | --- | --- | --- |
| 4.26 | 0.00283 | 664000 | B8 |
| 6.37 | 0.00327 | 513000 | B9 |
| 49600 | 0.0371 | 748 | B10 |
| 5670 | 0.0207 | 3660 | B11 |
| 48200 | 0.0215 | 445 | B12 |
| 217 | 0.00885 | 40700 | B13 |

Target: T2, recombinant human CLL-1 extracellular …
Test: as above

| Kd [nM] | koff [s⁻¹] | kon [M⁻¹ s⁻¹] | Binder |
| --- | --- | --- | --- |
| 5.09 | 0.00248 | 488000 | B8 |
| 14.1 | 0.0072 | 510000 | B9 |
| 862 | 0.0882 | 102000 | B10 |
| 286 | 0.0405 | 142000 | B11 |
| 622 | 0.0692 | 111000 | B12 |

— US20200148774A1 (Genentech, published 2020)
